Experimental data published in patent US20080138818A1.

Experiments:
[1] = target: Type I IFN receptor (human) (UniProt P17181); assay: cell-based or functional assay
[2] = target: T1, Type II IFN (IFN γ) receptor (human) (UniProt P15260); assay: cell-based or functional assay
T1 sequence (looked up) 1: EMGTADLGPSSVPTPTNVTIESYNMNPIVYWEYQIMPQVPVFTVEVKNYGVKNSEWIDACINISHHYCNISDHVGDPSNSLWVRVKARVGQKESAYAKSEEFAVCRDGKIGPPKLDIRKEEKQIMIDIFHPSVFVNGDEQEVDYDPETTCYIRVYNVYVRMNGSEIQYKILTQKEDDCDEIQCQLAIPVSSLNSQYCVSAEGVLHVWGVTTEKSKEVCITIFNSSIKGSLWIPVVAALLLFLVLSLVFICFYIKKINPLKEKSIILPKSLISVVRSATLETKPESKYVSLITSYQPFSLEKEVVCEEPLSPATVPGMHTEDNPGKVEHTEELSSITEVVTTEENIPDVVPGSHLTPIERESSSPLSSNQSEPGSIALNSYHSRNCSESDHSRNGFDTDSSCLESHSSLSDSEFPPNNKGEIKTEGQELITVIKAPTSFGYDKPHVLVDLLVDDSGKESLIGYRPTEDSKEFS
T1 sequence (looked up) 2: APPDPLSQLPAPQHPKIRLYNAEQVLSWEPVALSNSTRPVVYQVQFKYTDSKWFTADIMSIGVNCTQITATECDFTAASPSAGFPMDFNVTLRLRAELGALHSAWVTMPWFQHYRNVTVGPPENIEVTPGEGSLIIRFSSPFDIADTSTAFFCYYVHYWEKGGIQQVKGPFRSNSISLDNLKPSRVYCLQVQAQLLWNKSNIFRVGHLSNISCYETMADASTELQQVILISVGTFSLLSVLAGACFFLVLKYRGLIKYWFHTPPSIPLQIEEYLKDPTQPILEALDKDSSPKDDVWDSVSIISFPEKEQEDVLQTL

Chain of UniProt P17181 (P17181 28-557, chain 1 of 2): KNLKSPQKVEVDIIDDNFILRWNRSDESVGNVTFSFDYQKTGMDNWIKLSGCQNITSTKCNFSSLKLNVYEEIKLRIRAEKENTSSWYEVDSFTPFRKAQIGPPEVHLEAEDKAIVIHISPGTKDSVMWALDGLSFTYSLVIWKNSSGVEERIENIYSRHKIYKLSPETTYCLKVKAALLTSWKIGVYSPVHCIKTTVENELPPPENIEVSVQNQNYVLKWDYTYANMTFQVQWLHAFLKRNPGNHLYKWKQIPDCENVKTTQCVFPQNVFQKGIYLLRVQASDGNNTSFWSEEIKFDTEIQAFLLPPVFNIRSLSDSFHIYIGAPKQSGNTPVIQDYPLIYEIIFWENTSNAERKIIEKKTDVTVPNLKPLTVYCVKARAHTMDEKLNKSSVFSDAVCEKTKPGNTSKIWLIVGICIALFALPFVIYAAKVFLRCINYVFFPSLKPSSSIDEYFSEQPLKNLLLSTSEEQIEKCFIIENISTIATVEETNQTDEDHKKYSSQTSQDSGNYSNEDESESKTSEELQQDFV
Chain of UniProt P17181 (P48551 27-515, chain 2 of 2, further chain): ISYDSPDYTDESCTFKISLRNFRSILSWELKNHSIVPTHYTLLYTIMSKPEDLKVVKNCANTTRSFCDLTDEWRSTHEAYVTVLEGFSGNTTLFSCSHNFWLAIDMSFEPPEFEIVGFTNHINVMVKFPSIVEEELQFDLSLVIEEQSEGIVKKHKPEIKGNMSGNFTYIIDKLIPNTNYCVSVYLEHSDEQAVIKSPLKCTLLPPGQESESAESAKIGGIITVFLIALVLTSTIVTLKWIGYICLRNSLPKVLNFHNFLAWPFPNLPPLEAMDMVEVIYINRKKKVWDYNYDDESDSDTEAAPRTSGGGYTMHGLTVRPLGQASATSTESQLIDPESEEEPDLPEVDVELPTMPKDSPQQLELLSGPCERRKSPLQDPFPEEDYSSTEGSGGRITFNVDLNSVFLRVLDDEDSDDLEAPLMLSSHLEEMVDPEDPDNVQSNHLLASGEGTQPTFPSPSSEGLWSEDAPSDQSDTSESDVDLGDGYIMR

RLU (Relative Luciferase Units): Fold Increase, GAS-Luc reporter in U937 cells, IFNα 1.0 IU/ml [1] [fold] | RLU (Relative Luciferase Units): Fold Increase, GAS-Luc reporter in U937 cells, IFNα 100.0 IU/ml [1] [fold] | RLU (Relative Luciferase Units): Fold Increase, GAS-Luc reporter in U266R cells Clone 2 (UIG2), IFNγ 1.0 IU/ml [2] [fold] | RLU (Relative Luciferase Units): Fold Increase, GAS-Luc reporter in U266R cells Clone 2 (UIG2), IFNγ 100 0 IU/ml (so in the source) [2] [fold] | RLU (Relative Luciferase Units): Fold Increase, GAS-Luc reporter in U937 cells, IFNγ 10.0 IU/ml [2] [fold] | RLU (Relative Luciferase Units): Fold Increase, GAS-Luc reporter in U937 cells, IFNγ 100 0 IU/ml (so in the source) [2] [fold] | fold increase in RLU, IRF-Luc reporter in U937 cells Clone #2 (IRF-Luc2), IFNγ [2] [fold] | Substance
1.5 | 3 |  |  |  |  |  | human IFNα (ligand)
 |  | 1.5 | 9 | 1.25 | 1.5 | 1.1 | human interferon gamma (IFNγ) (from UniProt P01579 24-166) (ligand)
